Assay: label from the status in PepcDB records
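Also: failed if final PepcDB status was selected cloned or expressed and not failed if soluble or beyond.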

| Sequence | protein production |
| --- | --- |
| MSKVVGLSSKKSRWLLQSLRDQQRHSLGTGFESANILLSPKYHLKDKDLRKIHKAARVGDAARVQQLLLGKCGVNDKDKKKRWQGPRDGGCGGGGACVEESPHTTALHIACAYGHPKVVMALIEGRCEINATDSEECTSLVKAVQCQEEECATILLENGADPNIVDAQGNSALHYAVYYKNTSLAAKLLDHEVNIEATNKVEILHQRGVNQSTIVAKCVENPGLQSTGTIFCPHLTPLPEQGLTSSLKLTVVLNLAGGGGGEVSRGGRETETDTGGFTPLLLAVSENKLQIAKFLLMKNANIHAVDNQKRTALMHAVSHDSTHLVRFVLQQGVDLFLNDAFGLTAIDYAADFKYNTKVKQHQGLEKKSKSVSENLPLIRIGVDGLLQVNGQAVEEGRKQEWSEWGASESLQAAALDGGDLTSPLPRRRNKQAGKPGTQESPSVDSKEQDGGSDLNIKEENKKGYEEWSRDFVNELTSEKFGSVACDLLPVKDSWSLNGMDPNKGRPAKRKSKEKHKVEASLMMAEHGIDL | failed |
| MKNGGVFVSIALLVTITLVMGVIFVNGWTDAPNAIATAVSTRVLKPNVAIWMAVVMNFLGALVMTFFNAQVAETISNIVSFDANGNASQVALAASLFSIVVWAVAAWYFGIPTSESHALIAGLTGSAMALGGLGAVNGSEWIKVLVGLVVSTVMGFGGGYLIAKLVVKAFSAVPRRKANKFFTVGQAFGAGANAFLHGAQDGQKFMGVFMLVLFYNNLVEKTGGGFVIPLWVMVLCSITMGIGTSVGGMRIIKSVGMDMVKLERYQGFTADLSTAICLFLASAFGIPVSTTHTKTTAIMGVGASKRISSVDWRIVKEMLIAWILTFPGCGLIAYVMSKLFIAIF | failed |
| MRVHASSPDNKLQVFAIAGTKAILLAMNMDDSLLQGFHGFAFRRRVANGQWEWLTGLKVFVDVFPEGGPVIKKGKVGRFPTNEHPIQSFLWSDYRASPGTKYEFEISAMFGPIAKLEAYYAATLAITTEQEDDGKHGIWFNLGAIASQAFAEKFGNKPLSDADYNDPDNEEVAFLSRGLLEACIEFIRETPAGDALRIVAYEFTFKRILLELKAALERGVDVRIVYHATTANEKAIADAKLPENSKGVQILFKRTRPQTPHNKFIVRLKKGKTPVSVWTGSTNFTPSGFLGQTNVGHKVTDGDIAKIYLQLWEGLKADPDDFDATQAAMALTPNPANVVGTGTTLVFSPRPSPKMLDWYGHRAADAVNAVMFTAAFKVDERILSALADTDTSMRFILLEQPPSAEVQAARRANPADLELSYGAILGKTKMLTEERTGRDATGKKVTKIVPIPNFKIEKWFLKEELERQSGDGFVFYVHTKFLLVDPFSDDPLVCTGSANFSGASLTSNDENMLLIRGDTRVADIYLTEYDRVFRHFYSRDVINDIAKKGGPVNVGKLDPTDKWWQPYYDAKLAKSHKRRMFFEDPKKHWIESATQDGNVFAKEKPLKKPQ | failed |
| MDQLYQLAQAMIHNDLAVLSNPNVTLMVSGVILCFLVMENGFIPTAFLPGDTLLILTGVLIYQDVLHMGIVPLLMVATFIGTAIGYLQGYFLGHTQMYHRLLSHIDDKHQKKALYLIDKYGILTLLVARYIPFVRTIYPYIIGATGVSWSRFLVINFISSVMWITPLVGFGYVISHSKLANEYQTQFMSIIVYLPIVLLVSGIVTLIYKWLRKKKKL | failed |
| MGSTTGSMLTAISDTHGTDNHRLTGRTLDAVREADHVLHAGDFMTEQVLDAIDAESDELTGVVGNNDRPAVRARLSDVATVSWEELTIVVVHGHEHTETALGMLARQENADIVVVGHSHKPVLTDFGGWTLVNPGSYADPRRYQPAHAELDVMAGDVRVRLRSPDGTPISTTIVERLEHHHHHH | failed |
| DTMCLAIPGQVIEIREENGLKMGTVDISGALTKACLEYVPEIAIGQYTIVHAGFALKIIDEKEAAESLKLWDELIKSG | not failed |
| SCEKENIGIEVTPVNAKFIITPVVIDATTGTDVTQSAEISFSKGNGTYEGTPELASESININAKYKGMTGSASVTIPALKAGQFGAKEVTIILSENFFAQEESSNSQIETTKHSGFKNNTSDYWYYITVTYTKKEGSEVIKNDYEGDDSEIKNIIDAYNKGVREDKVTLNDVQVLAHSRFSVFVDYMKTTSVYQIIEKSPKRDGNPVASFTVDSYNTIVSPKNEQIPGHGHAPSHGHGHGHGDDSNAGGGIIIAD | not failed |
| MIRAVFFDFVGTLLSVEGEAKTHLKIMEEVLGDYPLNPKTLLDEYEKLTREAFSNYAGKPYRPIRDIEEEVMRKLAEKYGFKYPENFWEIHLRMHQRYGELYPEVVEVLKSLKGKYHVGMITDSDTEYLMAHLDALGIKDLFDSITTSEEAGFFKPHPRIFELALKKAGVKGEEAVYVGDNPVKDCGGSKNLGMTSILLDRKGEKREFWDKCDFIVSDLREVIKIVDELNGQ | not failed |
| MLVFEIIIGLLLAGAALTALSRRIGTPYPALVALAGAALALVPGTPTLVLEPDLALTLFVAPVLLDAAYDASQRDLRASWRTVAGLAVGAVALTVVVVAVVARALVPGMPWAVAVALGAIVAPPDAAAATAVLGQLRPPHRLMVILEGESLFNDASALLVYRLAVGAALAGALSPVEVLPPLLASTAGSVALGYGLSRVIPPLIARIEDVPIAVVVQFCGTFAVWIVAERLHLSGILTVVVFAMASAQRAAGQMAARVRIPSYAVWGFAVFVLNVLAFILVGFQLKAILGRIDAPTLLRYAGVAGAVCLAAVVARIAWVSGTAAVSRLRCRPTEDGSKARPDTIGLSPRGAAVVGWCGMRGIVTLAAALALPTGARGAPPFPHRDLVVFTAFAVVLGTLVLQGMTLRPLMRALRLEGDRSVDREVRLARVETLRAGLSATDGAAGDPLSDVLRRRYELLLRGAEAELRGGAAPQAPPAGGDVDPRAGAAVARRAVEAERGRLLALRSDGTIGDAAFQRVEEELDLEELSLRRLARDGAREAS | failed |
| MSLELEWMSIDDLKLPSNVIDIIKNRGIKKLNPPQTEAVKKGLLDGNRLLLTSPTGSGKTLIAEMGIISFLLKNGGKAIYVTPLRALTNEKYLTFKDWESIGFKVAMTSGDYDTDDAWLKNYDIIITTYEKLDSLWRHRPDWLNEANYFVLDELHYLNDPERGPVVESVTIRAKRRNLLALSATISNYKQIAKWLGAEPVATNWRPVPLMEGVMYPERKKKEYTILFRDNTARKVHGDDAIIAYTLDSLSKNGQVLVFRNSRKMAESTALKIANYMNFVSLDEKAISEILKQLDDIEEGGSDEKELLKSLISKGVAYHHAGLSKALRDIIEESFRKRKIKVIVATPTLAAGVNLPARTVIIGDIYRFNRKIVGYYDEIPVMEYKQMSGRAGRPGFDQIGESIIVVRDKEDVDRVFKKYILSDVEPIESKLGSERAFYTFLLGILSAEGSLSEKQLEAFAYESLLAKSVVDVYFDRAIRWLSEHSFIREENNTFTLTNFGKRVADLYINPFTADIIRKGLEGYKASCEIAYLHLLAFTPDGPLVSVGRNEEEELIELLEDLECELLVEEPYEEDEYSLYLNALKVALIMKDWIDEVDEDTILGKYNIGSGDLRNIVETMDWLTYSAYHLSKELRLDDHSDKLRILNLRVTDGVKEELLELVQIGGVGRKRARLLYNNGIKGLGDVVMNPDRVRNLLGQKLGERVVQEAARLLNRFH | failed |
| MARRSICEERRQQAGAGQPRGRCSDWQRRQRTLRPDATPMPADGRPRCSCLFSLLLSDPDLWKSWMSSQTAAERELAELLVESLNLEDVQPADIDPEAPLFNTGLGLDSIDALELALAISKRYGFQLRSDNDENRRIFASLRALSAHVQANKTV | failed |
| MSSHPYVTQQNTPLADDTTLMSTTDLQSYITHANDTFVQVSGYTLQELQGQPHNMVRHPDMPKAAFADMWFTLKKGEPWSGIVKNRRKNGDHYWVRANAVPMVREGKISGYMSIRTRATDEE | failed |
| PPSTLIGPGDDAALVRADDGRVAVSADMLVQDRHFRLDWSSPRDVGRKAVAQNAADVAAMGARPTAFLVSLGLPPDTSIDVADGISAAIGESAEELGAGVVGGDLVQAGQVVISVTVLGDLGGRS | failed |
| MKPVKPPRINGRVPVLSAQEAVNYIPDEATLCVLGAGGGILEATTLITALADKYKQTQTPRNLSIISPTGLGDRADRGISPLAQEGLVKWALCGHWGQSPRISDLAEQNKIIAYNYPQGVLTQTLRAAAAHQPGIISDIGIGTFVDPRQQGGKLNEVTKEDLIKLVEFDNKEYLYYKAIAPDIAFIRATTCDSEGYATFEDEVMYLDALVIAQAVHNNGGIVMMQVQKMVKKATLHPKSVRIPGYLVDIVVVDPDQSQLYGGAPVNRFISGDFTLDDSTKLSLPLNQRKLVARRALFEMRKGAVGNVGVGIADGIGLVAREEGCADDFILTVETGPIGGITSQGIAFGANVNTRAILDMTSQFDFYHGGGLDVCYLSFAEVDQHGNVGVHKFNGKIMGTGGFIDISATSKKIIFCGTLTAGSLKTEIADGKLNIVQEGRVKKFIRELPEITFSGKIALERGLDVRYITERAVFTLKEDGLHLIEIAPGVDLQKDILDKMDFTPVISPELKLMDERLFIDAAMGFVLPEAAH | not failed |
| MTASDQFNSTHSAVDQYAELVLHNGRMYTLDPAQPWADAVAIRQGKLIAVGSLASLASLIGPNTRQHDLDGAFCMPGLHDMHTHPDLALAPRYADDLDVGIEDPTPEQLAAAIHAYADSHPGDGWIYGQYWVRYTFREAGLTPGREWLDSVMPHRPVALLDRMWGTMMVNSKALELAGIDRHTSDPRNGYLERDELTGEPNGLLIDGAYALIHAAMPPTPVSVLRRAYRDGVHFQTSRGVTATKYVHVCENRLQALKELDDAGELTLRVEAAISWQDDIFPVRRRWELLSGERHFYRSARLSANAVKFHFDGTVEPKSSYLLTPWPEESSWRGKLNLTPEHITDMVVDMDKRGLRVIAHCTGDGASDVFLDAVAEARRRNGNSGIRHQCAHSTLLHPGNLKRFQALDVIAEFSPAAWYPTPFASGARSGYGQERLKRIYDFKGVLAAGGIAVFGTDWPVASIDPWLALETMVTRQNPWNQEPDTFGDPISLEQALQVATLNGAHAMGLEHLTGSLEAGKSADLIVLDRDLFAQGARNYIHHTQVQLTFVEGQLVYDRQGTFSDTPLQAVWEGLPPVIEGKE | failed |
| MTLKLIGAGFGRTGTWSTFAALNRLGLPCYHMQEVIMNKANKGHLDFWRKVANSPPGSQHDWNRVFANYTATVDNPGCCVWKELLAAYPDAKVLLTLHPRGAEAWYESTIDTIYFTENVWQFKILEWLTPFGWKFGDMSRKLIWGRTLDGVMNDRAKAVARYNTYVEQVKAAVPPHKLLVYKVTEGWAPLCDFLGVALPNEPFPNLNDRETIKKIIRDIIKGSYIMLGLAIAAIVAVVAALWWWLG | failed |
| MSDVIQLAYFAVAVVFILGLKAMSSPVSARKGIVWAGYAMVAATLITLLKPGMENYGLMITAIVLGGAVAWWSGKVVKMTDMPQMVAIYNGMGSGAAAAIAALEFARGSMHGGFAATLAVLGALIGSVAFSGSCIAFAKLQGIMTKAWRLPAQNVVNVALAGIALVLGGAIIFGSTPASEMVIAFFVVALALGAILTSPIGGADMPVVISLLNAFTGLAVGFEGYVLGNPALIVAGIVVGASGTLLTQLMAKAMNRPIKNIIFTPITGAAAGGGEAIGGSMKELSALDGASVMRYASKVIIVPGYGMAVAGAQHKVWEMAQLLEEGGVEVVFAIHPVAGRMPGHMNVLLAEAGVPYDKIFDLEEINADFPQADVALVIGANDVVNPVARTDKSSPIYGMPILNVDMAQNVIVVKRGQGAGYSGIENALFFKDNCRMLYGSAQQIIGEVITHVKALEV | failed |
| MGNLPPHYGGSVNLLIAALGVLGVASSGPLIAGTLGATSVTALAIAFWRNAIGAVVMAGPVVIREPKAFGRITRREFGWSAVAAVALAFHFACFITALQLTSVAAATALVCLQSGWIAVFQLFRGTRHRWPVLVGLGIAFGGVVAITGFDMGSSPEALLGDLLALAGGALAGLYTLAGGKARQSMGTGTYTTLCYGMCAAIVAVMALFSGQPLAGFDAGGWLGIIAITVCAQLVGHTAFNHLLATMSPLLVSMIILLEIPGAAILAAIFLNETLPAGTYAGLALILVGLAVVVSGQRRGRPVADRREAELGAD | failed |
